In paper PMC2696619 one finds IC50 data, which are given here for one substance.

Read-outs that look alike come from different tables or passages of the source.

Assay [1] concerns the target human C3b (human) (UniProt P01024). The assay is described as follows: radioligand binding.
For assay [2] the target is unchanged. The assay is described as follows: radioligand binding. The source holds these as a separate data set.

For the substance “wildtype rH19-20 (recombinant domains 19-20 of factor H) (from UniProt P08603 1107-1231) (domain or fragment)”, the IC50 – broadly, the concentration that inhibits the measured activity by half – with human C3b (human) [1] amounted to 1000 nM; in the assay with human C3b (human) [2], 200 nM.
